Experimental data published in patent US11078465B2, “Alcohol dehydrogenase mutant and application thereof in synthesis of diaryl chiral alcohols” (Jiangnan University, priority 2018, dated 2021).

Key:
Assay type in all cases: biochemical
[1] = Substrate specificity, specific activity
In short: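 Alcohol dehydrogenase mutants were assayed with 1.0 mM NADPH and 1.0 mM ketone substrate (CPMK or other prochiral carbonyls) in 100 mM sodium phosphate, pH 7.0, at 30° C. NADPH oxidation was followed at 340 nm; one U oxidizes 1 μmol NADPH per min (ε 6220).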

[2] = Asymmetric reduction in 20 mL biocatalytic system, conversion
Description: In an embodiment of the present disclosure, a chromatographic analysis method is as follows: 100 μL of reactant liquid is taken, 500 μL of ethyl acetate is added, shaking is performed for 1-2 min, centrifugation is performed at 12,000 rpm for 2-5 min, supernatant liquid is taken into a centrifuge tube, after an organic phase naturally volatilizes completely, 500 μL of chromatographically pure ethanol is added, and chiral liquid chromatography and gas chromatography are performed to analyze the transformation rate and the ee value.
The pure (R)-CPMA were recrystallized from ethyl acetate at 4° C. and gave 99.9% optical purity. […] Besides, the conversion cannot reach 100% with 24 h in the asymmetric reduction of (4-bromophenyl)-(phenyl)-methanone and p-nitrobenzophenone due to the low enzyme activity.

[3] = Kinetic analysis of alcohol dehydrogenase and mutants (NADPH oxidation, 340 nm, double reciprocal curve); settings: substrate CPMK
In short: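 His-tagged recombinant KpADH (wild type or mutant) purified by nickel affinity, desalted into Tris-HCl pH 7.0. Activity measured at 30° C in 100 mM sodium phosphate pH 7.0 with 1.0 mM NADPH and 1.0 mM CPMK by 340 nm NADPH absorbance decrease; kinetic parameters from double reciprocal plots over varied substrate and coenzyme concentrations.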

[4] = Stereoselectivity on different substrates; settings: for Stereoselectivity (ee): configuration in brackets
In short: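 Alcohol dehydrogenase mutants reduced prochiral ketones, including CPMK, aryl pyridyl and diaryl ketones, acetophenones and keto esters. Reactions were extracted into ethyl acetate and redissolved in ethanol. Conversion and ee were determined by chiral liquid and gas chromatography, with ee calculated from (S)- and (R)-CPMA molar concentrations.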

[5] = Stereoselectivity on different substrates; settings: configuration in brackets
In short: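 Reaction mixture extracted with ethyl acetate, dried organic phase redissolved in ethanol, then analysed by chiral liquid chromatography and gas chromatography. Values are transformation rate and ee, with ee from LC molar concentrations of (S)- and (R)-CPMA. Substrates were prochiral ketones reduced by alcohol dehydrogenase mutants.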

[6] = Stereoselectivity (ee) of CPMK reduction, chiral liquid chromatography
In short: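 ee is calculated from the (S)-CPMA and (R)-CPMA molar concentrations measured by chiral liquid chromatography; conversion also by GC. Samples are ethyl acetate extracts of the reaction, dried and redissolved in ethanol.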

B1: E214I/S237A: isoleucine for glutamate at position 214 and alanine for serine at position 237 of SEQ ID No. 2 (protein)
chain: MSVLISGASGYIAKHIVRVLLEQNYKVIGTVRSQDKADKLLKQYNNPNLSYEIVPEIANLDAFDDIFKKHGKEIKYVIHAASPVNFGAKDLEKDLVIPAINGTKNMFEAIKKYAPDTVERVVMTASYASIMTPHRQNDPTLTLDEETWNPVTEENAYENVFTAYCASKTFAEKEAWKFVKENSDAVKFKLTTIHPSFVFGPQNFDEDVTKKLNITCEIINGLLHAPFDTKVEKTHFAQFIDVRDVAKTHVLGFQKDELINQRLLLCNGAFSQQDIVNVFNEDFPELKGQFPPEDKDTDLNKGVTGCKIDNEKTKKLLAFEFTPFHKTIHDTVYQILHKEGRV
modifications: Protein translated from synthetic DNA
Work on B1 yielded a specific activity ([1]; substrate [drawing 1]) of 0.09 U/mg, a specific activity ([1]; substrate [drawing 2]) of 0.08 U/mg and a specific activity ([1]; substrate [drawing 3]) of 1.42 U/mg. The specific activity ([1]; substrate [drawing 4]) was 2.94 U/mg, the specific activity ([1]; substrate [drawing 5]) was 12.38 U/mg and the specific activity ([1]; substrate [drawing 6], 4-chlorophenacyl chloride) was 30.09 U/mg. For the same molecule, the specific activity ([1]; substrate [drawing 7]) was 21.73 U/mg, the specific activity ([1]; substrate [drawing 8]) was 30.28 U/mg and the specific activity ([1]; substrate [drawing 9], ethyl 4-chloro-3-oxobutanoate) was 5.58 U/mg. For the same molecule, the Conversion rate ([2]; 4-chloroacetophenone 100 mM, 1 h) was 59%, the Conversion rate ([2]; 4-chloroacetophenone 100 mM, 2 h) was 72% and the Conversion rate ([2]; 4-chloroacetophenone 100 mM, 3 h) was 89%. It also gave a Conversion rate ([2]; 4-chloroacetophenone 100 mM, 4 h) of 85%, a Conversion rate ([2]; 4-chloroacetophenone 100 mM, 6 h) of 97.6% and a Conversion rate ([2]; 4-chloroacetophenone 100 mM, 8 h) of 99.8%. For the same molecule, the Conversion rate ([2]; 4-chloroacetophenone 100 mM, 12 h) was over 99.9%, the Conversion rate ([2]; 4-chloroacetophenone 100 mM, 24 h) was over 99.9% and the Conversion rate ([2]; 4-chloroacetophenone 200 mM, 1 h) was 40%. It also gave a Conversion rate ([2]; 4-chloroacetophenone 200 mM, 2 h) of 52.4%, a Conversion rate ([2]; 4-chloroacetophenone 200 mM, 3 h) of 69.5% and a Conversion rate ([2]; 4-chloroacetophenone 200 mM, 4 h) of 76.9%. For the same molecule, the Conversion rate ([2]; 4-chloroacetophenone 200 mM, 6 h) was 88.6%, the Conversion rate ([2]; 4-chloroacetophenone 200 mM, 8 h) was 95.6% and the Conversion rate ([2]; 4-chloroacetophenone 200 mM, 12 h) was 99.2%. For the same molecule, the Conversion rate ([2]; 4-chloroacetophenone 200 mM, 24 h) was 99.7%, the Conversion rate ([2]; 4-chloroacetophenone 500 mM, 1 h) was 28.5% and the Conversion rate ([2]; 4-chloroacetophenone 500 mM, 2 h) was 38.9%. It also gave a Conversion rate ([2]; 4-chloroacetophenone 500 mM, 3 h) of 50.0%, a Conversion rate ([2]; 4-chloroacetophenone 500 mM, 4 h) of 64.2% and a Conversion rate ([2]; 4-chloroacetophenone 500 mM, 6 h) of 80.9%. For the same molecule, the Conversion rate ([2]; 4-chloroacetophenone 500 mM, 8 h) was 90.2%, the Conversion rate ([2]; 4-chloroacetophenone 500 mM, 12 h) was 94.9% and the Conversion rate ([2]; 4-chloroacetophenone 500 mM, 24 h) was 99.2%. For the same molecule, the Kcat [3] was 12.06 ± 0.52 s⁻¹, the Km [3] was 470 ± 50 µM and the Vmax [3] was 18.09 ± 0.78 µM/min/mg. The ee ([4]; substrate 4-chloroacetophenone, (R)) was 99.4%, the “Stereoselectivity (ee)” value ([4]; substrate [drawing 10], acetophenone) was 9.69 (R) and the “Stereoselectivity (ee)” value ([4]; substrate [drawing 11], 4-chloroacetophenone) was 99.4 (R). For the same molecule, the “Stereoselectivity (ee)” value ([4]; substrate [drawing 12], 4-chlorobenzoyl chloride) was 76.4 (R), the “Stereoselectivity (ee)” value ([4]; substrate [drawing 16], (4-bromophenyl)-(phenyl)-methanone) was 93.4 (S) and the “Stereoselectivity (ee)” value ([4]; substrate [drawing 17], p-nitrobenzophenone) was 86.5 (S). The “Stereoselectivity (ee)” value ([5]; substrate [drawing 13]) was 36.8 (R), the “Stereoselectivity (ee)” value ([5]; substrate [drawing 14], likely CPMK (values partly match Table 4)) was 98.4 (R) and the “Stereoselectivity (ee)” value ([5]; substrate [drawing 15]) was 52.6 (S). For the same molecule, the “Stereoselectivity (ee)” value ([5]; substrate [drawing 18]) was 81.8 (S), the “ee value, (R)-CPMA” value ([6]; R configuration product, listed as E2141/S237A) was 98.3% and the e.e. ([6]; product configuration in brackets) was 98.3 (R).
